# According to the supplement of paper PMC10065799, “High-throughput profiling of sequence recognition by tyrosine kinases and SH2 domains using bacterial peptide display” (eLife, 2023):
# Experiments:
# [1] = tested on: AncSZ; experiment: phosphorylation enrichment, bacterial display (enrichment ratio); higher = better substrate or ligand; peptides without Tyr show the background
# [2] = target: EPHB1 (UniProt P54762); experiment: as above
# [3] = target: EPHB2 (UniProt P29323); experiment: as above
# [4] = target: FGFR1 (UniProt P11362); experiment: as above
# Sequence of FGFR1 (P11362 whole entry, looked up): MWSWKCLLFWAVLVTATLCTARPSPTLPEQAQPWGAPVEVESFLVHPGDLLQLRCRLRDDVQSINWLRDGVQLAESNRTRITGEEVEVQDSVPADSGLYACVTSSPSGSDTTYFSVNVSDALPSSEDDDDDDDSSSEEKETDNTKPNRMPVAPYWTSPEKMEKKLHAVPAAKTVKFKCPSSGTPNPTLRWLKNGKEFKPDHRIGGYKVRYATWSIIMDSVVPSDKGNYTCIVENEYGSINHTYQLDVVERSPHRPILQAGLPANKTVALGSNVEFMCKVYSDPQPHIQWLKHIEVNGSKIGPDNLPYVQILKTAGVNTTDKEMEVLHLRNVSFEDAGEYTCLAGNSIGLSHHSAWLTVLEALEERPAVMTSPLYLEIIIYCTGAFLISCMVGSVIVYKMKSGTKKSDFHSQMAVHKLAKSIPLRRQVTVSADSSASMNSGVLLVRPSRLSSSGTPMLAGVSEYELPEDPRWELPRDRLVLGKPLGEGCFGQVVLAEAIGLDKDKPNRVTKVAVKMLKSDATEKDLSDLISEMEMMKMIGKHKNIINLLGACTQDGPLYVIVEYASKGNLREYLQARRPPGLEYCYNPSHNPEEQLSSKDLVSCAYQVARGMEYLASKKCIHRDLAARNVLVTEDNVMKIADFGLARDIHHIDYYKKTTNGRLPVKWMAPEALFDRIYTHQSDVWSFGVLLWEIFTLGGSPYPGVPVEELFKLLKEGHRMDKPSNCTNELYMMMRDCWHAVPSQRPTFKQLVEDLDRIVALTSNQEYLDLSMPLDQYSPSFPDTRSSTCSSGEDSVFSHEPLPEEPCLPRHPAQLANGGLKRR
# [5] = target: FGFR3 (UniProt P22607); experiment: as above
# [6] = tested on: Fer (mouse); experiment: as above
# [7] = target: Fes (UniProt P07332); experiment: as above
# Sequence of Fes (P07332 whole entry, looked up): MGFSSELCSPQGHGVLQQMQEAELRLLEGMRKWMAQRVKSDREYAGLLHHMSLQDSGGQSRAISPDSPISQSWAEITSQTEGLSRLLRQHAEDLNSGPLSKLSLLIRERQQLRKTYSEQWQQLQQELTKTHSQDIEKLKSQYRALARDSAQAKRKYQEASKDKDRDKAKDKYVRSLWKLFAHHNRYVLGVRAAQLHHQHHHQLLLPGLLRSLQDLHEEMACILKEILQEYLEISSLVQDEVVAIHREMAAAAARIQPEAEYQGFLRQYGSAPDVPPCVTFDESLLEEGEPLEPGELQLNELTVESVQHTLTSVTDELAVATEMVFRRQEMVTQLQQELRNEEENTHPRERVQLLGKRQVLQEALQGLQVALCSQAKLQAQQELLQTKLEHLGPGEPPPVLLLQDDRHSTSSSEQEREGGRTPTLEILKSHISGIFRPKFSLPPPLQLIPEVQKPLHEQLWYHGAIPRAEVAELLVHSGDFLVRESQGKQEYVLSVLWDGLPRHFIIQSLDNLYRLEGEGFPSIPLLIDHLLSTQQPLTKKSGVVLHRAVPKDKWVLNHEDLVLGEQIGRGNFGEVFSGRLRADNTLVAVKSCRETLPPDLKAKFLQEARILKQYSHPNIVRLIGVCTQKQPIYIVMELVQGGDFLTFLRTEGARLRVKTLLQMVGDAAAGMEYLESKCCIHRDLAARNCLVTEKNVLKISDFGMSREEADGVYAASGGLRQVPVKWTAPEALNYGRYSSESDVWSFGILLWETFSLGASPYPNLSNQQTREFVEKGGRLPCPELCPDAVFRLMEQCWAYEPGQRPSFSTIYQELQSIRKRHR
# [8] = target: Fyn (UniProt P06241); experiment: as above
# [9] = target: Hck (UniProt P08631); experiment: as above
# [10] = target: Jak2 (UniProt O60674); experiment: as above
# Sequence of Jak2 (O60674 whole entry, looked up): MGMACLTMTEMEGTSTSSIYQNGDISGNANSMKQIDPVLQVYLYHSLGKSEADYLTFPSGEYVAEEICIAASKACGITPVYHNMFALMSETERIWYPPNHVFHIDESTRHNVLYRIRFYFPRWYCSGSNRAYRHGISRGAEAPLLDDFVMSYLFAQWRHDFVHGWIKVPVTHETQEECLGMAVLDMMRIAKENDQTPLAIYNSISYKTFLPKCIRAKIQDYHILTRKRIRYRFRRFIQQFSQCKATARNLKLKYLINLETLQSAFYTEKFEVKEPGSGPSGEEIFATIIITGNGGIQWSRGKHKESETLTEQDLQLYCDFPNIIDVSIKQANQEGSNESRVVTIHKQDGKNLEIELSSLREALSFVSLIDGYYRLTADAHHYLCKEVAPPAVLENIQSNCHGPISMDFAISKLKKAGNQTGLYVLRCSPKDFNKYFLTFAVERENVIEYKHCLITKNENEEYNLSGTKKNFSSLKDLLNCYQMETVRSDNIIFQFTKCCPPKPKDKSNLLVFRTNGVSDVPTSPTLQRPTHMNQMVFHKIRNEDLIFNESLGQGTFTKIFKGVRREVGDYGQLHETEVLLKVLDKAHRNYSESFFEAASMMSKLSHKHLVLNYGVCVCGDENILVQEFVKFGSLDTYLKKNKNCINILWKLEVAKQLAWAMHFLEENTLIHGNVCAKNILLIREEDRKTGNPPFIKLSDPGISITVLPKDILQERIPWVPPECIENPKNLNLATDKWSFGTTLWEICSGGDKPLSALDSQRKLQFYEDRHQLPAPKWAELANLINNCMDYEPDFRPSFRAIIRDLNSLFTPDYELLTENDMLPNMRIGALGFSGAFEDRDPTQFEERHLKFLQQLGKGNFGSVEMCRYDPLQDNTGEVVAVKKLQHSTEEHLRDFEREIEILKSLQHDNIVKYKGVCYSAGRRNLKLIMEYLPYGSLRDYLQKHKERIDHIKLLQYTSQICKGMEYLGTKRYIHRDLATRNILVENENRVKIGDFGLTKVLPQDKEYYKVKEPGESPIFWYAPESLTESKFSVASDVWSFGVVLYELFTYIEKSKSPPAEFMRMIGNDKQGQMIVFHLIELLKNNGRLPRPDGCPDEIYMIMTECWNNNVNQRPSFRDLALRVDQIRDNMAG
# [11] = target: MERTK (UniProt Q12866); experiment: as above
# Sequence of MERTK (Q12866 whole entry, looked up): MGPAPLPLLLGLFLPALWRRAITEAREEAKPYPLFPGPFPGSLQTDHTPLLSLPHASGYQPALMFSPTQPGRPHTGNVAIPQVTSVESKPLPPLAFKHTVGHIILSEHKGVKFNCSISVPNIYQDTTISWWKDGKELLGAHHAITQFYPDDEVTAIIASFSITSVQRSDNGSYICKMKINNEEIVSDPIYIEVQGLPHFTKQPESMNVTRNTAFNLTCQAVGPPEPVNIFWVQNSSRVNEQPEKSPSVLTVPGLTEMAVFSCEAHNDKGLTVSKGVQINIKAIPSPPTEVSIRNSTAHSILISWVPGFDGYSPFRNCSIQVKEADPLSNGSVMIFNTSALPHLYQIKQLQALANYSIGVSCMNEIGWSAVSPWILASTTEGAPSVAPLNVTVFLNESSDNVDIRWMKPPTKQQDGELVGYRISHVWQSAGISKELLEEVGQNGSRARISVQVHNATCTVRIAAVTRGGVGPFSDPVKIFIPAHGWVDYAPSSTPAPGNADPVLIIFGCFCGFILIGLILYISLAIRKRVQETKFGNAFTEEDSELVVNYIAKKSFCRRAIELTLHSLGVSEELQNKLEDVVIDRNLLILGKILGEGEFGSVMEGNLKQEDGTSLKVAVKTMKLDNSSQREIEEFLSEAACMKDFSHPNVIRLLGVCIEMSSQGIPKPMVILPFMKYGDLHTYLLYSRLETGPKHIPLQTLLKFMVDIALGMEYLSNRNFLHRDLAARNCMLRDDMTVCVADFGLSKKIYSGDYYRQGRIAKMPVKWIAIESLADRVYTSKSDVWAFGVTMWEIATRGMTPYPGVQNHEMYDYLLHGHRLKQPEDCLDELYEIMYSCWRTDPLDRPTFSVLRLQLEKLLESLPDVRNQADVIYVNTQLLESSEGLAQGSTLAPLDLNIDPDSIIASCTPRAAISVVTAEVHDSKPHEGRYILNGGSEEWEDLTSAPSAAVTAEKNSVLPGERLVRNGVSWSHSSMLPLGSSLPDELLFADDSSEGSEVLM
# [12] = tested on: c-Abl (mouse); experiment: as above
# [13] = tested on: c-Src; experiment: as above
# [14] = target: Grb2 SH2 (UniProt P62993); experiment: SH2 binding enrichment of the phosphorylated peptide, bacterial display (enrichment ratio); higher = better substrate or ligand; peptides without Tyr show the background
# [15] = target: SHP2-C SH2; experiment: as above
# [16] = target: c-Src SH2; experiment: as above
# 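For SH2 binding enrichment of the phosphorylated peptide, bacterial display in this document: peptide library displayed on the E. coli surface as eCPX fusions, selected cells deep-sequenced, score is each peptide's frequency after selection divided by its frequency in the input.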
# 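For phosphorylation enrichment, bacterial display in this document: 11-residue human phosphosite peptides and single-mutation variants displayed on the E. coli surface, counted by deep sequencing, each peptide's frequency after selection divided by its frequency in the unselected input library; frequency after pTyr selection over input frequency; kinase dosed for 20-30% of maximal phosphorylation in three min.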
# Sequence of EPHB1 (P54762 whole entry, looked up): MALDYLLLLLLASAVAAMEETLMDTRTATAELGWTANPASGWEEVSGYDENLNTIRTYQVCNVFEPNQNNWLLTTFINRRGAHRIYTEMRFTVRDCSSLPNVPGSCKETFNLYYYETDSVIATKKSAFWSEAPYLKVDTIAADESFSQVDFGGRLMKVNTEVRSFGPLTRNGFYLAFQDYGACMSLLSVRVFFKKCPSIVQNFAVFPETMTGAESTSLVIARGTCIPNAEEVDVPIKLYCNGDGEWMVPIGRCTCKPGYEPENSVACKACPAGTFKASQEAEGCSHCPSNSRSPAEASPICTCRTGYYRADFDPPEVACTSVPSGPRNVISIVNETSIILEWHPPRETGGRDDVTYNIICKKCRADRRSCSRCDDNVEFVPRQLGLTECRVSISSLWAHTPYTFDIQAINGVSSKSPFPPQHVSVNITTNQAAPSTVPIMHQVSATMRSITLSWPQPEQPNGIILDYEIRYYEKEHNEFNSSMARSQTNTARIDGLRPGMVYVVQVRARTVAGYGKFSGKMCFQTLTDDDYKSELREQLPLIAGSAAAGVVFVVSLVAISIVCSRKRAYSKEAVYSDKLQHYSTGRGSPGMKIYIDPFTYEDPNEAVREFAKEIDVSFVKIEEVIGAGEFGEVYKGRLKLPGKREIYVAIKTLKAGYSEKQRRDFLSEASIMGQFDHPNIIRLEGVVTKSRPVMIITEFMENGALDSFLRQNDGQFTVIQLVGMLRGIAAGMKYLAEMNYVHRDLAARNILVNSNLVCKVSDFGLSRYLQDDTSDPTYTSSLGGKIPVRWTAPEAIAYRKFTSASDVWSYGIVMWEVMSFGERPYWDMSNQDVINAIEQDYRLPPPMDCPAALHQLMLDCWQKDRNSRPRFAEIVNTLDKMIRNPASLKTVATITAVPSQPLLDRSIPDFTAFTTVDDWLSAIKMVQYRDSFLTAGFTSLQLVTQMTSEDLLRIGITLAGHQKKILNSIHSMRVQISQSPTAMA
SH2 binding enrichment [14],SH2 binding enrichment [15],SH2 binding enrichment [16],Sequence,phosphorylation enrichment [1],phosphorylation enrichment [2],phosphorylation enrichment [3],phosphorylation enrichment [4],phosphorylation enrichment [5],phosphorylation enrichment [6],phosphorylation enrichment [7],phosphorylation enrichment [8],phosphorylation enrichment [9],phosphorylation enrichment [10],phosphorylation enrichment [11],phosphorylation enrichment [12],phosphorylation enrichment [13]
1.71,1.57,1.72,CTTIHYNFMCI [TP53_Y234_N239I_YF],1.05,0.621,0.673,0.598,0.707,0.706,1.26,0.477,0.529,0.969,0.392,0.809,0.434
0.768,0.568,0.34,IIRRLYLKWHP [SACS_Y4333],1.04,0.508,0.543,0.474,0.596,0.453,0.904,0.535,0.497,0.819,0.612,0.721,0.571
0.808,0.713,0.502,SQQTFCRVSNM [ABCD1_Y181_Y181C_YF],0.636,0.461,0.515,0.446,0.615,0.408,0.679,0.453,0.5,0.554,0.412,0.567,0.411
0.75,0.555,0.454,VQDPAYLRDIN [OPRK1_Y369_D374N],0.828,0.608,0.485,0.415,0.623,0.46,0.974,0.467,0.442,0.766,0.333,0.604,0.488
0.993,4.07,0.504,EFTPLYPMLFG [SCLY_Y280],1.01,0.59,0.695,12.8,9.26,0.458,1.12,0.547,0.515,1.64,2.6,0.849,0.475
0.841,0.803,1.11,IPGRFYETGSI [PAX2_Y73_L69P_YF],0.733,0.441,0.858,0.635,0.614,0.357,0.723,0.492,0.517,0.662,0.415,0.552,0.549
0.905,0.731,0.519,WAFNLYDINKF [KCNIP3_Y174_D179Y_YF],1.02,2.22,3.11,0.497,0.669,4.81,1.26,2.08,3.36,0.933,3.37,0.662,1.61
0.908,0.469,0.704,QEIATCRRLLE [KRT14_Y415_Y415C],0.896,0.412,0.502,0.634,0.508,0.337,0.928,0.352,0.635,0.643,0.407,0.641,0.372
1.24,0.702,0.763,FSAPNYCFRCG [PPP2CA_Y265_YF],0.661,0.397,0.448,0.474,0.486,0.415,0.674,0.349,0.374,0.511,0.393,0.416,0.343
0.832,0.629,0.457,EQLQSYQVEII [KRT33A_Y268_A270V],1.14,0.67,0.529,0.531,0.762,0.597,1.21,0.579,0.53,0.945,0.513,0.858,0.575
0.777,0.618,0.605,EEEYEYMNRRR [ERBB3_Y1199_D1194E],1.15,0.324,0.402,0.429,0.583,0.342,0.804,0.332,0.546,0.882,0.356,0.329,0.36
0.925,0.604,0.682,EQSGSYIWVPA [DLG1_Y895],1.86,0.892,0.615,8.59,5.15,0.514,1.16,0.471,0.487,1.19,3.33,0.807,0.511
0.884,0.884,0.547,TKDTFHKQPMF [GBA_Y451_Y451H],0.454,0.29,0.352,0.304,0.391,0.249,0.476,0.333,0.312,0.468,0.403,0.445,0.459
6.01,0.82,0.653,SKQGKYLNWDA [ATM_Y54],0.79,0.384,0.507,0.437,0.527,0.454,0.856,0.396,0.427,0.666,0.399,0.491,0.445
1.62,1.48,1.41,NKKHHYRELPV [ERN2_Y860],1.04,0.855,0.773,0.826,2.45,1.22,1.97,0.669,1.01,2.67,0.795,2.31,0.996
0.901,0.525,0.401,GGKFSYLKVGH [GRM3_Y480_YF],0.634,0.409,0.368,0.512,0.519,0.344,0.619,0.361,0.371,0.642,0.463,0.494,0.411

SH2 binding enrichment [14],SH2 binding enrichment [15],SH2 binding enrichment [16],Sequence,phosphorylation enrichment [1],phosphorylation enrichment [2],phosphorylation enrichment [3],phosphorylation enrichment [4],phosphorylation enrichment [5],phosphorylation enrichment [6],phosphorylation enrichment [7],phosphorylation enrichment [8],phosphorylation enrichment [9],phosphorylation enrichment [10],phosphorylation enrichment [11],phosphorylation enrichment [12],phosphorylation enrichment [13]
0.817,0.645,0.526,DEEEEYEYMNR [ERBB3_Y1197_D1194E],1.17,0.493,0.625,0.536,0.665,0.466,1.17,0.567,0.484,1,0.404,0.631,0.408
1.11,0.717,0.644,QDRDLYPCPGT [RLF_Y671],1.05,0.71,0.693,0.484,0.878,0.687,1.37,0.936,0.429,1.1,0.751,0.863,0.613
1.03,0.945,0.385,QKMADYSNKLF [PDPR_Y104_YF],1.16,0.662,0.647,0.741,0.586,0.362,1.41,0.683,0.554,1.41,0.788,1.26,0.81
0.599,0.426,0.368,NIRKKYYRAIL [CHD7_Y1217_Q1214R],0.569,0.455,0.311,0.501,0.341,0.388,0.547,0.443,0.395,0.494,0.507,0.462,0.442
0.822,0.429,0.576,KQMEQYMSFHK [HCN1_Y417_V414M],0.5,0.393,0.369,0.408,0.547,0.313,0.573,1.47,4.18,0.516,0.419,0.416,1.76
0.982,0.7,1.2,DLNATYCTIQG [U2SURP_Y634_R635C],1.31,7.15,5.72,1.06,0.954,1,1.07,9.64,7.17,0.845,2.36,0.78,5.32
0.968,0.941,0.521,GVRTIYTIDGS [DCLK2_Y124],0.803,0.563,0.507,0.581,0.506,0.52,0.846,1.38,0.697,0.69,0.553,0.5,1.6
0.997,0.619,0.5,GKFRMYVAVWT [F13A1_Y161],1.14,0.508,0.604,0.479,0.665,0.501,1.1,0.377,0.365,1.13,0.357,0.762,0.342
0.854,0.816,6.02,LTFHMYADPNF [SOS1_Y618_YF],1.81,1.67,1.45,0.715,1.1,0.901,1.97,0.577,0.711,1.61,0.843,1.99,0.755
1.12,0.564,0.778,KRAIGHYSATS [FAM120A_Y327_Y327H],0.459,0.305,0.286,0.319,0.423,0.356,0.498,0.346,0.312,0.439,0.355,0.474,0.434
1.18,0.894,0.862,IFHLSYLHNCE [PDE6B_Y227_YF],0.985,0.589,0.566,0.494,0.856,0.562,1.26,0.546,0.512,0.956,0.436,0.782,0.431
0.848,0.701,0.598,NTTIHYNFMCN [TP53_Y234_C229N_YF],1.14,0.698,0.618,0.542,0.828,0.557,1.24,0.495,0.511,1.02,0.427,0.782,0.46
0.773,0.723,0.378,KLKRSYPSPDI [USP8_Y717_S718P],0.436,0.374,0.291,0.352,0.411,0.339,0.546,0.374,0.381,0.58,0.467,0.547,0.469
0.939,1.18,0.552,DSILVYQRKEQ [USH2A_Y1909_G1911R],0.636,0.455,0.546,0.517,0.579,0.487,0.744,0.506,0.55,0.7,0.475,0.55,0.626
0.862,0.817,0.631,NPQKSCFIRLF [WAS_Y83_Y83C_YF],1.06,0.606,0.578,0.583,0.704,0.47,1.18,0.459,0.526,0.974,0.467,0.848,0.453
0.764,0.669,0.472,YGMSSYITRED [FNDC3B_Y180_T179S],0.819,0.545,0.452,0.529,0.696,0.524,0.844,0.423,0.431,0.697,0.544,0.645,0.51

Sequence,SH2 binding enrichment [14],SH2 binding enrichment [15],SH2 binding enrichment [16],phosphorylation enrichment [1],phosphorylation enrichment [2],phosphorylation enrichment [3],phosphorylation enrichment [4],phosphorylation enrichment [5],phosphorylation enrichment [6],phosphorylation enrichment [7],phosphorylation enrichment [8],phosphorylation enrichment [9],phosphorylation enrichment [10],phosphorylation enrichment [11],phosphorylation enrichment [12],phosphorylation enrichment [13]
LADKPYTFEDY [FXN_Y118],0.758,0.588,0.446,2.03,0.736,1.04,0.955,1.14,0.832,1.74,3.63,0.945,1.92,2.31,1.55,6.91
